Data: US20040106148A1, “Polypeptides” (priority 2000, published 2004)

B1: PH domain of mouse centaurin-β2: GST fusion of mouse centaurin-β2 residues 266 to 390, expressed in 293 cells (protein, UniProt Q6ZQK5 266-390, looked up, fragment)
chain: GIVMEGYLFKRASNAFKTWNRRWFSIQNNQLVYQKKFKDSPTVVVEDLRLCTVKHCEDIERRFCFEVVSPTKSCMLQADSEKLRQAWIKAVQTSIATAYREKGDESEKLDKKSSPSTGSLDSGNE
modifications: PH domain GST fusion
notes: GST fusion of mouse centaurin-β2 residues 266 to 390, expressed in 293 cells
B2: evectin-2: GST fusion of human evectin-2 residues 1 to 167 (protein, UniProt Q96CS7 1-167, looked up, fragment)
chain: MAFVKSGWLLRQSTILKRWKKNWFDLWSDGHLIYYDDQTRQNIEDKVHMPMDCINIRTGQECRDTQPPDGKSKDCMLQIVCRDGKTISLCAESTDDCLAWKFTLQDSRTNTAYVGSAVMTDETSVVSSPPPYTAYAAPAPEQAYGYGPYGGAYPPGTQVVYAANGQA
modifications: GST fusion
B3: C-terminal PH domain of TAPP2: GST fusion of isolated C-terminal PH domain of mouse TAPP2, residues 174 to 425 (protein, UniProt Q9ERS5 174-425, looked up, fragment)
chain: GTHAFLRRSQSYIPTSGCRPSTGPPLIKSGYCVKQGNVRKSWKRRFFALDDFTICYFKCEQDREPLRTIPLKDVLKTHECLVKSGDLLMRDNLFEIITTSRTFYVQADSPEDMHSWIEGIGAAVQALKCHPREPSFSRSISLTRPGSSTLTSAPNSILSRRRPPAEEKRGLCKAPSVASSWQPWTPVPQAEEKPLSVEHAPEDSLFMPNPGESTATGVLASSRVRHRSEPQHPKEKPFVFNLDDENIRTSDV
modifications: C-terminal PH domain GST fusion
B4: NT-PH TAPP1: GST fusion of isolated N-terminal PH domain of human TAPP1, residues 1 to 147 (protein, UniProt Q9HB21 1-147, looked up, fragment)
chain: MPYVDRQNRICGFLDIEENENSGKFLRRYFILDTREDSFVWYMDNPQNLPSGSSRVGAIKLTYISKVSDATKLRPKAEFCFVMNAGMRKYFLQANDQQDLVEWVNVLNKAIKITVPKQSDSQPNSDNLSRHGECGKKQVSYRTDIVG
modifications: N-terminal PH domain GST fusion
B5: CT-PH TAPP1: GST fusion of isolated C-terminal PH domain of human TAPP1, residues 95 to 404 (protein, UniProt Q9HB21 95-404, looked up, fragment)
chain: NDQQDLVEWVNVLNKAIKITVPKQSDSQPNSDNLSRHGECGKKQVSYRTDIVGGVPIITPTQKEEVNECGESIDRNNLKRSQSHLPYFTPKPPQDSAVIKAGYCVKQGAVMKNWKRRYFQLDENTIGYFKSELEKEPLRVIPLKEVHKVQECKQSDIMMRDNLFEIVTTSRTFYVQADSPEEMHSWIKAVSGAIVAQRGPGRSASSEHPPGPSESKHAFRPTNAATATSHSTASRSNSLVSTFTMEKRGFYESLAKVKPGNFKVQTVSPREPASKVTEQALLRPQSKNGPQEKDCDLVDLDDASLPVSDV
modifications: C-terminal PH domain GST fusion
B6: FAPP1: GST fusion of the PH domain of human FAPP1 (residues 1 to 99), PtdIns-Four-phosphate AdaPtor Protein-1, expressed in E. coli (protein, UniProt Q9HB20 1-99, looked up, fragment)
chain: MEGVLYKWTNYLTGWQPRWFVLDNGILSYYDSQDDVCKGSKGSIKMAVCEIKVHSADNTRMELIIPGEQHFYMKAVNAAERQRWLVALGSSKACLTDTR
modifications: PH domain GST fusion
notes: GST fusion of the PH domain of human FAPP1 (residues 1 to 99), PtdIns-Four-phosphate AdaPtor Protein-1, expressed in E. coli
B7: N-terminal PH domain of TAPP2: GST fusion of isolated N-terminal PH domain of mouse TAPP2, residues 1 to 131 (protein, UniProt Q9ERS5 1-131, looked up, fragment)
chain: MPYVDRQNRICGFLDIEDNENSGKFLRRYFILDTQANCLLWYMDNPQNLAVGAGAVGSLQLTYISKVSIATPKQKPKTPFCFVINALSQRYFLQANDQKDLKDWVEALNQASKITVPKAGTVPLATEVLKN
modifications: N-terminal PH domain GST fusion
B8: pleckstrin-2: GST fusion of mouse pleckstrin-2 residues 1 to 249 (protein, UniProt Q9WV52 1-249, looked up, fragment)
chain: MEDGVLKEGFLVKRGHIVHNWKARWFILRQNTLLYYKLEGGRRVTPPKGRIVLDGCTITCPCLEYENRPLLIKLKTRTSTEYFLEACSREERDSWAFEITGAIHAGQPGKIQQLHILKNSFKLPPHISLHRIVDKMHDTSTGIRPSPNMEQGSTYKKTFLGSSLVDWLISSNFAASRLEAVTLASMLMEENFLRPVGVRSMGAIRSGDLAEQFLDDSTALYTFAESYKKKVSSKEEISLSTMELSGTVV
modifications: GST fusion

Columns and labels:
Type in all cases: binding
[1] = Protein-lipid overlay, panel of phosphoinositides; conditions: GST fusion protein; for Binding to any other phosphoinositide (than the one bound): FIG. 2; for Interaction with any phosphoinositide tested: FIG. 2 / FIG. 4A
Description: (§1) FIG. 2. Phosphoinositide binding properties of the novel PH domains. The ability of the indicated GST fusion proteins to bind a variety of phosphoinositides was analysed using a protein-lipid overlay. Serial dilutions of the indicated phosphoinositides (100 pmol, 50 pmol, 25 pmol, 12.5 pmol, 6.3 pmol, 3.1 pmol and 1.6 pmol) were spotted onto a nitrocellulose membranes which were then incubated with the purified GST fusion proteins. The membranes were washed and the GST-fusion proteins bound to the membrane by virtue of their interaction with lipid were detected using a GST antibody. A representative of at least 3 separate experiments carried out is shown.
FIG. 4. Comparison of the phosphoinositide binding properties of the N-terminal and C-terminal PH domains of TAPP1 and TAPP2. The ability of wild type and mutant forms of full length (FL) and isolated N-terminal (NT) and C-terminal (CT) PH domains of TAPP1 and TAPP2 GST-fusion proteins to interact with phosphoinositides were analysed using a protein-lipid overlay. Serial dilutions of the indicated phosphoinositides (100 pmol, 50 pmol, 25 pmol, 12.5 pmol, 6.3 pmol, 3.1 pmol and 1.6 pmol) were spotted onto a nitrocellulose membrane which was then incubated with the indicated purified GST fusion proteins. The membranes were washed and the GST-fusion proteins bound to the membrane by virtue of their interactions with lipid were detected using a GST antibody. A representative experiment of three is shown. The isolated N-terminal PH domain of human TAPP1 comprises residues 1 to 147, the isolated C-terminal PH domain of human TAPP1 comprises residues 95 to 404, the isolated N-terminal PH domain of mouse TAPP2 comprises residues 1 to 131 and the isolated C-terminal PH of mouse TAPP2 comprises residues 174 to 425.
Protein-Lipid overlay. To assess the phosphoinositide binding properties of each PH domain, a protein-lipid overlay assay was performed using the GST fusion proteins as described previously. Briefly, 1 μl of lipid solution containing 1-100 pmol of phospholipids dissolved in a mixture of choroform:methanol:water (1:2:0.8) was spotted onto Hybond-C extra membrane and allowed to dry at room temperature for 1 h. The membrane was blocked in 3% (by mass) fatty acid-free BSA in TBST (50 mM Tris/HCl pH 7.5, 150 mM NaCl and 0.1% Tween-20 (by vol) for lh. The membrane was then incubated overnight at 4° C. with gentle agitation in the same solution containing 0.2 μg/ml of the indicated GST fusion protein. The membranes were washed 6 times over 30 min in TBST and then incubated for 1 h with 1/1000 dilution of anti-GST monoclonal antibody (Sigma). The membranes were washed as before, then incubated for 1 h with 1/5000 dilution of anti-mouse-HRP conjugate (Pierce). Finally, the membranes were washed 12 times over 1 h in TBST and the GST-fusion protein bound to the membrane by virtue of its interaction with phospholipid was detected by enhanced chemiluminescence.
We studied the specificity and affinity of interaction of the PH domains for phosphoinositide lipids using either a “protein-lipid overlay” assay (FIG. 2) or the more quantitative surface plasmon resonance based approach (Table 2). For the protein-lipid overlay assay, serial dilutions of phosphoinositides were spotted on to a nitrocellulose membrane and incubated with the indicated GST PH domain fusion protein or GST-DAPP1 (that binds PtdIns(3,4,5)P3 and PtdIns(3,4)P2 [4]), GST-GRP1 (that binds only PtdIns(3,4,5)P3 [8]) and GST-phospholipase Cδ1 (that binds only PtdIns(4,5)P2 (Ferguson et al (1995) Cell 83, 1037-1046)) as controls. The membranes were then washed and immunoblotted with a GST antibody to detect GST fusion proteins bound to the membrane by virtue of their interaction with lipid. […]

[2] = Protein-lipid overlay; conditions: GST fusion protein, lipid spotted 1.6-100 pmol on membrane, FIG. 2 / FIG. 4
Description: as §1
FIG. 4. […] The ability of wild type and mutant forms of full length (FL) and isolated N-terminal (NT) and C-terminal (CT) PH domains of TAPP1 and TAPP2 GST-fusion proteins to interact with phosphoinositides were analysed using a protein-lipid overlay. […] The membranes were washed and the GST-fusion proteins bound to the membrane by virtue of their interactions with lipid were detected using a GST antibody. […]
We studied the specificity and affinity of interaction of the PH domains for phosphoinositide lipids using either a “protein-lipid overlay” assay (FIG. 2) or the more quantitative surface plasmon resonance based approach (Table 2). […]

[3] = Protein-lipid overlay; conditions: GST fusion protein, dipalmitoyl lipid spotted on membrane, FIG. 2
Description: as §1
(§2) Protein-Lipid overlay. To assess the phosphoinositide binding properties of each PH domain, a protein-lipid overlay assay was performed using the GST fusion proteins as described previously. […]
(§3) We studied the specificity and affinity of interaction of the PH domains for phosphoinositide lipids using either a “protein-lipid overlay” assay (FIG. 2) or the more quantitative surface plasmon resonance based approach (Table 2). […] For the surface plasmon resonance based assay, the apparent Kd values of the GST PH domain fusion proteins resulting from their interaction with a supported lipid monolayer containing a low mole fraction of phosphoinositide, was determined (Table 2).

[4] = Protein-lipid overlay; conditions: GST fusion protein, lipid spotted on membrane, FIG. 2 / FIG. 11
Description: as §1
Methods used are equivalent to those specified in the legend to FIG. 2.
as §2, §3

Molecule	Binding to any other phosphoinositide (than the one bound) [1]	Interaction with any phosphoinositide tested [1]	further results
B1	did not bind	–	–
B2	interacted more weakly	–	–
B3	did not bind	–	Interaction with PtdIns(3,4)P2 [2]: interacted with PtdIns(3,4)P2; Interaction with PtdIns(3,4,5)P3 [3]: did not bind
B4	–	failed to interact	–
B5	did not bind	–	Interaction with PtdIns(3,4)P2 [2]: interacted with PtdIns(3,4)P2; Interaction with PtdIns(3,4,5)P3 [3]: did not bind
B6	did not bind	–	Interaction with PtdIns4P [4]: high affinity
B7	–	failed to interact	–
B8	–	interacted with several phosphoinositides	–
